Laboratory results as given in paper PMC9293779, “Elucidation of binding preferences of YEATS domains to site-specific acetylated nucleosome core particles” (The Journal of Biological Chemistry, 2022).
Blank lines part the entries; values can stand above or below the substance they belong to.

Columns and labels:
[1] = test system: GAS41-YEATS (human); experiment: MST; settings: NCP plate assay: 10 mM Tris-HCl pH 7.5, 150 mM NaCl, 25 C, 1 h, 5 pmol NCP, 25 pmol protein; MST buffer not in material
[2] = test system: YEATS2-YEATS (human); experiment: MST; settings: NCP plate assay: 10 mM Tris-HCl pH 7.5, 150 mM NaCl, 25 C, 1 h, 5 pmol NCP, 25 pmol protein; MST buffer not in material
[3] = test system: AF9-YEATS (human); experiment: MST; settings: NCP plate assay: 10 mM Tris-HCl pH 7.5, 150 mM NaCl, 25 C, 1 h, 5 pmol NCP, 25 pmol protein, MST buffer not in material
[4] = molecular target: unmodified nucleosome core particle (NCP) (human) (UniProt P04908); experiment: MST; YEATS domain labelled with a His-tag labeling kit; 10 mM Hepes-NaOH pH 7.4, 150 mM NaCl; room temperature; Monolith NT.115; fitted to the Hill equation, K1/2 = half-saturation concentration; biological triplicate
[5] = test system: AF9-YEATS E57A (human); experiment: MST; settings: NCP plate assay: 10 mM Tris-HCl pH 7.5, 150 mM NaCl, 25 C, 1 h, 5 pmol NCP, 25 pmol protein, MST buffer not in material
[6] = molecular target: H4K5/K8-diacetylated NCP (human) (UniProt P04908); experiment: MST; YEATS domain labelled with a His-tag labeling kit; 10 mM Hepes-NaOH pH 7.4, 150 mM NaCl; room temperature; Monolith NT.115; fitted to the Hill equation, K1/2 = half-saturation concentration; biological triplicate
[7] = molecular target: H4K8/K12-diacetylated NCP (human) (UniProt P04908); experiment: as above
[8] = molecular target: H4K5/K8/K12/K16-tetra-acetylated NCP (human) (UniProt P04908); experiment: as above
[9] = molecular target: H4K8-acetylated NCP (human) (UniProt P04908); experiment: as above
[10] = molecular target: H4K12-acetylated NCP (human) (UniProt P04908); experiment: as above
[11] = molecular target: H3K9-acetylated NCP (human) (UniProt P04908); experiment: as above
[12] = molecular target: H4K5-acetylated NCP (human) (UniProt P04908); experiment: as above
[13] = histone H4K5ac/K8ac/K12ac/K16ac

Chain of AF9-YEATS domain, polyhistidine-tagged (microscale thermophoresis) (P42568 1-138): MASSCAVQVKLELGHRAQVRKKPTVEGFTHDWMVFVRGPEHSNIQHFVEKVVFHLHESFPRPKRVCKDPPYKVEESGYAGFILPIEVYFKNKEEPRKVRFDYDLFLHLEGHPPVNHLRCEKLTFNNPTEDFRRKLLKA

Substance: nucleosome-free 147-bp dsDNA
K half [1]: > 50000 nM | K half [2]: 8.2 µM | K half [3]: 12000 nM

K1/2 (half-saturation concentration) [4]: 1.4 µM
Substance: GAS41-YEATS domain, polyhistidine-tagged (microscale thermophoresis) (from UniProt O95619 15-159) (domain or fragment)

Substance: H4K12ac NCP
K half ([3]; histone H4K12ac): 140 nM

Substance: H4K8ac NCP
K half ([3]; histone H4K8ac): 75 nM

Substance: H4K5ac/K8ac NCP
binding signal (fold K1/2 increase vs WT) ([5]; histone H4K5ac/K8ac): 1.8 | K half ([3]; histone H4K5ac/K8ac): 30 nM

Substance: unmodified NCP
K half [1]: 1400 nM | K half [2]: 2.6 µM | K half [3]: 140 nM

fold increase in K1/2 against the WT [6]: 1.8 fold | fold increase in K1/2 against the WT [7]: 1.3 fold | fold increase in K1/2 against the WT [8]: 1.5 fold
Substance: AF9-YEATS E57A mutant (from UniProt P42568 1-138) (domain or fragment)

Substance: H3K9ac NCP
K half ([3]; histone H3K9ac): 16 nM

K1/2 (half-saturation concentration) [4]: 2.6 µM
Substance: YEATS2-YEATS domain, polyhistidine-tagged (microscale thermophoresis) (from UniProt Q9ULM3 200-349) (domain or fragment)

K1/2 (half-saturation concentration) [4]: 0.14 µM | K1/2 (half-saturation concentration) [6]: 30 nM | K1/2 (half-saturation concentration) [9]: 75 nM | K1/2 (half-saturation concentration) [10]: 140 nM | K1/2 (half-saturation concentration) [7]: 41 nM | K1/2 (half-saturation concentration) [11]: 16 nM | K1/2 (half-saturation concentration) [8]: 25 nM | K1/2 (half-saturation concentration) [12]: 120 nM
Substance: AF9-YEATS domain, polyhistidine-tagged (microscale thermophoresis) (from UniProt P42568 1-138) (domain or fragment)

Substance: H4K5ac NCP
K half ([3]; histone H4K5ac): 120 nM

Substance: H4K8ac/K12ac NCP
binding signal (fold K1/2 increase vs WT) ([5]; histone H4K8ac/K12ac): 1.3 | K half ([3]; histone H4K8ac/K12ac): 41 nM

Substance: H4K5ac/K8ac/K12ac/K16ac NCP
binding signal (fold K1/2 increase vs WT) [5, 13]: 1.5 | K half [3, 13]: 25 nM
